Experiments:
MS2 coat protein [1] = test: apparent KD of MS2 coat protein, switch ON state; designed switch direction (-1 OFF switch, 1 ON switch): 1; higher = weaker reporter binding; details: FMN input: 0 or 200 uM; Eterna round: R93 (includes R88 designs)
Summary of the method: (§1)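 Titration buffer: 100 mM Tris-HCl pH 7.5, 80 mM KCl, 4 mM MgCl2, without or with constant ligand. Designed RNA switches transcribed on-chip from Illumina sequencing clusters received SNAP-549-labelled MS2 coat protein in twofold steps from 0.7 or 1.5 nM to 3 µM. Apparent KD is the median per design of fits to normalised cluster binding curves.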

MS2 coat protein [2] = test: apparent KD of MS2 coat protein, switch OFF state (with FMN for OFF switches, without FMN for ON switches); designed switch direction (-1 OFF switch, 1 ON switch): 1; higher = weaker reporter binding; details: FMN input: 0 or 200 uM; Eterna round: R93 (includes R88 designs)
Summary of the method: as §1

| Sequence | apparent KD of MS2 coat protein (MS2 coat protein [1]) | apparent KD of MS2 coat protein (MS2 coat protein [2]) |
| --- | --- | --- |
| AGAAAACAUGAGGAUCACCCAUGUAGAAAUAUGGGAGGAUAUACAUAGACGAAAGUCAUAGUAGAAGGCCUAAAGA [Mat - Same State 1 - Meechl mod - D128] | 15 nM | 49.4 nM |
| AGAAAACAUGAGGAUCACCCAUGUAGAAAUAUGGGAGGAUAUACGAAGACGAAAGUCGAAGUAGAAGGCCUAAAGA [Mat - Same State 1 - Meechl mod - D126] | 23.2 nM | 50.8 nM |
| AGAAAGAAAAGAGAGGAUAUCUAAAAGAAAACAUGAGGAUCACCCAUGUAAAAGAAAAGAAAAUGGGAGAAGGCUCAUGAGAAAG [JL Skelter Mod 7 In the Red] | 101 nM | 59.7 nM |
| AGAAAUAAAAGAGAGGAUAUCCAAAAGAAAACAUGAGGAUCACCCAUGUAAAAGAAAAUAAAAUGGGAGAAGGCUCAUAUUAAAG [JL Skelter 2 mod 3] | 44.9 nM | 146 nM |
| AGAAAUAAAAGAGAGGAUAUCCAAAAGAAAACAUGAGGAUCACCCAUGUACACGAAAGUGAAAUGGGAGAAGGCUCAAAAUAAAG [80% More Helter Skelter 2 + Hairpin] | 121 nM | 536 nM |
| AGAAAUAAAUGAGAGGAUAUCCAAAAGAAAACAUGAGGAUCACCCAUGUAAAAGAAAAUAAAAUGGGAGAAGGCUCGAAAUAAAG [80%, More Helter Skelter 2] | 22.4 nM | 68.5 nM |
| AGAAAUAAAUGAGAGGAUAUCCAAAAGAAAACAUGAGGAUCACCCAUGUAAAAGAAAAUAAAGUGGGAGAAGGCUCGAAAUAAAG [80%, More Helter Skelter 2] | 23.3 nM | 43.5 nM |
| AGAAUAAAAAGAGAGGAUAUCCAUAAGAAAACAUGAGGAUCACCCAUGUGAAAGAUAAUAAAAUGGGAGAAGGCUCAAAAUAAGA [Topaz 45] | 21 nM | 20.2 nM |
| AGAAUAAAAAGAGAGGAUAUCCAUAAGAAAACAUGAGGAUCACCCAUGUGAAAGAUAAUAAGAUGGGAGAAGGCUCAAAAUAAGA [Topaz 46] | 20.3 nM | 49.5 nM |
| AGCACGCGAUUGGAGGAUAUGUUGUUUGCAACAUGAGGAUCACCCAUGUCUGAGGCUGAAAAGCAGCAGAAGGCCGAUACAACCA [SS2-1.1] | 30.6 nM | 113 nM |
| AGGAAACAUGAGGAUCACCCAUGUAAAAAAUAGGGAGGAUAUACUAGAAGAAACAAAAUAGUAGAAGGCUCAAAAA [75%, Ex sub1, 25] | 12.9 nM | 30 nM |
| AGGAAACAUGAGGAUCACCCAUGUAAAAAAUAGGGAGGAUAUGGAAACACGAAAGUGAAACCAGAAGGCUCAAAAA [77%, Mat - Mod of Eli, 23] | 13.8 nM | 18.2 nM |
| AGGAAACAUGAGGAUCACCCAUGUAAAAAUAUGGGAGGAUAUACAAACAAGAAAGUCAAAGUAGAAGGCCUAAAAG [Garnet 6] | 63.7 nM | 152 nM |
| AGGAAACAUGAGGAUCACCCAUGUAAAAAUAUGGGAGGAUAUACAAACAAGAAAGUCAGAGUAGAAGGCCUAAAAG [Garnet 7] | 73.7 nM | 145 nM |
| AGGAAACAUGAGGAUCACCCAUGUAAAAAUAUGGGAGGAUAUACGAAGACGAAAGUAAAAGUAGAAGGCCUAAAAG [Garnet 15] | 31.8 nM | 108 nM |
| AGGAAACAUGAGGAUCACCCAUGUAAAAAUAUGGGAGGAUAUUGGAAUAAAAUAAAGAACCGAGAAGGCCUAAAAA [59%, Flamingo, 6] | 32.3 nM | 219 nM |
| AGGAAACAUGAGGAUCACCCAUGUAAAGAUGGGCGAGGAUAUCGAAAGAAAAGAAAGAAACGAGAAGGCGCAAAAG [Flamingo] | 43.7 nM | 240 nM |
| AGGAAACAUGAGGAUCACCCAUGUAAGAUAAACUUAGGAUAUGCGAAAAGAAACAAAGAAGCAGAAGGAGGGAGAA [75%, Ex5 sub 1, 2] | 16.5 nM | 33 nM |
| AGGAAACAUGAGGAUCACCCAUGUAUAAAAAAUACAGGAUAUGGAAACACGAAAGUGAAACCAGAAGGGUAAAAAA [77%, Mat - Mod of Eli, 32] | 15.9 nM | 39.9 nM |
| AGGAGACAUGAGGAUCACCCAUGUGAGAAGAGGCGAGGAUAUCGAAAGAAAGAAGAGAAACGAGAAGGCGCGAGCU [salish99-SS1-024] | 24.4 nM | 29.6 nM |
| AGGAGACAUGAGGAUCACCCAUGUGAGAAGAGGCGAGGAUAUCGAAAGAAAGAAGAGAAACGAGAAGGCGCGAGGU [salish99-SS1-023] | 23.6 nM | 36.7 nM |
| AGGAGACAUGAGGAUCACCCAUGUGCACGUGGAGGAGGAUAUGCUAGUAGAAGAUAGAAAGCAGAAGGCCUAAGAA [mod of top voted: #2] | 44.3 nM | 37.2 nM |

| Sequence | apparent KD of MS2 coat protein (MS2 coat protein [1]) | apparent KD of MS2 coat protein (MS2 coat protein [2]) |
| --- | --- | --- |
| AGGAGACAUGAGGAUCACCCAUGUGCACGUGGAGGAGGAUAUGCUAGUAGAAGAUAGAAUGCAGAAGGCCUAAGAA [JR_SameState1_Sub3] | 42.8 nM | 35.3 nM |
| AUAAAACAUGAGGAUCACCCAUGUAGACAUAUGGGAGGAUAUACUAGAUCGAAAGAUCUAGUAGAAGGUCUUUAAA [JL Mod of Eli 9] | 297 nM | 257 nM |
| AUAAAACAUGAGGAUCACCCAUGUAGCUAAAGCACAGGAUAUAGGAGUCCGAGCAGACAUCUAGAAGGGUGGAAAA [Veeslelein] | 57.5 nM | 88.6 nM |
| AUAAAAGAAGCGAAGGAUAUCCAACUCAAAACAUGAGGAUCACCCAUGUAAAGAAAUAAAAAAUGGGAGAAGGUCGCAAAGAAUA [73%, More Fisker Same State 2, D3, 14] | 582 nM | 40.1 nM |
| AUAAGACAUGAGGAUCACCCAUGUAUAAGAGCAUGAGGAUAUAUGAAAAGUAAUAGGAGAAUAGAAGGCAUAGUUG [JR_SS001_Sub1220] | 80.7 nM | 92.4 nM |
| AUAAUAUUAAGCAAGGAUAUACUAAAGUAAACAUGAGGAUCACCCAUGUGAAAAAAAAAACUCAUGUAGAAGGUGCAUAAAUAAA [moonwalk 11] | 23.9 nM | 50 nM |
| AUACUACAUGAGGAUCACCCAUGUUGAAAUAUGGAAGGAUAUACGUAGUAAAAUAACUACGUAGAAGGUCCAGAAA [SS1 MT 22] | 18.7 nM | 19.6 nM |
| AUAGAACAUGAGGAUCACCCAUGUAAAAAAGCAUGAGGAUAUAUAAGUAAAUAAAAUAAGAUAGAAGGCAUGAUAA [JR_SS001_Sub1701] | 52 nM | 91.4 nM |
| AUAGACAUAGUUCAGGAUAUGGUAAUAGUCACAUGAGGAUCACCCAUGUGCAUUUAUAUGCGCGAUCAGAAGGGAGGUAGAUAUA [Mat - Same state - Malcolm Mod - D117] | 17.7 nM | 16.3 nM |
| AUAUAUAUAAGGUAGGAUAUCCUAAAGUAAACAUGAGGAUCACCCAUGUAAAGAAAGAAACUCAUGGAGAAGGACCAUAUAUAUA | 15.5 nM | 20.2 nM |
| AUAUGAUCAUGUGAGGAUAUCCAUAAUAAAACAUGAGGAUCACCCAUGUAUAGAUACUAAUAAUGGGAGAAGGCACAUGAUCAAU [SS 2 M43] | 19.9 nM | 24 nM |
| AUGGUCAAGUGUGAGGAUAUCCAGGCUCCCACAUGAGGAUCACCCAUGUUUUAAAGAGCGUAAAGGGAGAAGGUACGAACGCCAC [Isorvere] | 15.4 nM | 21.9 nM |
| AUUCCAAAUAGUCAGGAUAUCAGGAGUAAGACAUGAGGAUCACCCAUGUACUUAGUAAAAGUAACUGAGAAGGGACAGGGUGUAA [JR_SS002_Sub406] | 30 nM | 24.2 nM |
| AUUUUACAUGAGGAUCACCCAUGUUUUGGUGGAUCAGGAUAUAGAUUGAAUGAGUUUUAGCUAGAAGGGAUAUAUA [JR_SS001_Sub506] | 111 nM | 110 nM |
| CACCCGUGUAUGAAGGAUAUGUAGACCCUGACAUGAGGAUCACCCAUGUAACUGUGGGUCCCAUCGCAGAAGGUCGAGACACGGG [Ribitite] | 22.4 nM | 180 nM |
| CAGCGCUGUCGAGAGGAUAUGCGGUGAUGGACAUGAGGAUCACCCAUGUAAGCGAUAGCAUUACGGCAGAAGGCUCUGCAGCUGC [Riaranzaes] | 18.7 nM | 69.6 nM |
| CGAAAGGAGAGAGAGGAUAUCCAAAGGAAAACAUGAGGAUCACCCAUGUAGAAGGUAGGAGAUUGGGAGAAGGCUCAAGACAGAG [salish99-ss2-143(!!!!)] | 21.3 nM | 36.1 nM |
| CGAAAGGAGAGAGAGGAUAUCCAAAGGAAAACAUGAGGAUCACCCAUGUAGAAGGUAGGAGAUUGGGAGAAGGCUCAAGAGAGAA [salish99-ss2-146] | 19.1 nM | 25 nM |
| CGAAGACAUGAGGAUCACCCAUGUGGGAAUAUGGGAGGAUAUACAAAGACGAGAGUCAGAGUAGAAGGCCUAGGAA [salish99-ss1-104] | 23.3 nM | 56.6 nM |
| CGCGGGCCCGGGCAGGAUAUCCGGCCUCGGACAUGAGGAUCACCCAUGUGGCCGAAAGGCCGGUGGGAGAAGGGCCCGGGCCCGC | 20.5 nM | 23.1 nM |
| CGCUCACAUGAGGAUCACCCAUGUCCUAGGAGGUCAGGAUAUAGCUCGGAUGCGUUGAGGCUAGAAGGGACAGGUG [JR_SS001_Sub606] | 78.6 nM | 59.5 nM |
